Data taken from patent US20200392227A1 (LYVGEN BIOPHARMA, published 2020).
Substitutions are numbered along the chain they refer to. Where two headings read alike, the source gives them in different places.

Tests used:
[1] = target: T1, human FcRI protein (MednaBio, E1031) (human, UniProt P12314 16-288, limits assumed); assay: BLI
T1 construct: Bought; loaded on anti-penta-HIS biosensors; also called FcγRI
How it was run: (§1)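 On an Octet Red96 System, anti-penta-HIS biosensors loaded with commercial human Fc receptor proteins were dipped into test IgG diluted 1:3 over 8 points from 300 nM. Fcγ receptor runs used pH 7.2 and FcRn runs used pH 6. Global fitting of these biolayer interferometry data gave the values for Kd, kon and koff, using a 1:1 binding model.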

[2] = target: T2, human FcRIIA protein (MednaBio, E1033) (human, UniProt P12318 34-218, limits assumed); assay: BLI
T2 construct: Bought; also called FcγRIIA
T2 sequence (looked up): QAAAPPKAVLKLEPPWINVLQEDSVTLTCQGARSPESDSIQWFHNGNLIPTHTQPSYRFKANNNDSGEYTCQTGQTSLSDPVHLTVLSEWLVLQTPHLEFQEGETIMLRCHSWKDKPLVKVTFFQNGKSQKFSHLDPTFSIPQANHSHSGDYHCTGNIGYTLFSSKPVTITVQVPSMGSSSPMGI
How it was run: as §1

[3] = target: T3, human FcRIIB/C protein (MednaBio, E1034) (human, UniProt P31994 43-217, limits assumed); assay: BLI
T3 construct: Bought as FcRIIB/C; also called FcγRIIB; CD32B
T3 sequence (looked up): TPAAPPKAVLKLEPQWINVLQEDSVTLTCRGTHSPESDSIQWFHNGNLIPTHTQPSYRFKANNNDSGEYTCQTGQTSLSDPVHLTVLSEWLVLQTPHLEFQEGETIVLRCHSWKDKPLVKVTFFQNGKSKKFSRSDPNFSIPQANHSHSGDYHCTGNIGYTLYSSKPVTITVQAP
How it was run: as §1

[4] = target: T4, human FcRIIIA-F158 protein (MednaBio, E1036) (human, UniProt P08637 17-208); assay: BLI
T4 construct: Bought; also called FcγRIIIA(F)
T4 sequence (P08637 17-208 limits assumed): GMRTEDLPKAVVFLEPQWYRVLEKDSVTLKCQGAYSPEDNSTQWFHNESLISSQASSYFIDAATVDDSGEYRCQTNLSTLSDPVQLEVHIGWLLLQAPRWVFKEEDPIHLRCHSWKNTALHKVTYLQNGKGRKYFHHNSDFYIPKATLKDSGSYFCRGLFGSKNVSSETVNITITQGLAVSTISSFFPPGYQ
How it was run: as §1

[5] = target: T5, human FcRIIIA-V158 protein (MednaBio, E1035) (human, UniProt P08637 17-208); assay: BLI
T5 construct: Bought; also called FcγRIIIA(V); FcgRIIIA(V)
T5 sequence (P08637 17-208 F176V): as the sequence (P08637 17-208 limits assumed) above, with F160V counted along it
How it was run: as §1

[6] = target: T6, human FcRIIIB protein (MednaBio, E1037) (human, UniProt O75015 17-200); assay: BLI
T6 construct: Bought; also called FcγRIIIB; FcgRIIIB
T6 sequence (O75015 17-200 limits assumed): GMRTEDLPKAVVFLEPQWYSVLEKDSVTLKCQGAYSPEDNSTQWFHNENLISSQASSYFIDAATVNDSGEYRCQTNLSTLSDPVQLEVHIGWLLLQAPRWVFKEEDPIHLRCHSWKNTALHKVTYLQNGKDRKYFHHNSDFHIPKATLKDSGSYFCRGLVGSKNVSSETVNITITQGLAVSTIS
How it was run: as §1

[7] = target: T7, human FcRn protein (MednaBio, E1032) (human, UniProt P55899 24-297; P61769 21-119); assay: BLI
T7 construct: Bought; assays at pH 6
T7 sequence (P55899 24-297 limits assumed, form in doubt, chain 1 of 2): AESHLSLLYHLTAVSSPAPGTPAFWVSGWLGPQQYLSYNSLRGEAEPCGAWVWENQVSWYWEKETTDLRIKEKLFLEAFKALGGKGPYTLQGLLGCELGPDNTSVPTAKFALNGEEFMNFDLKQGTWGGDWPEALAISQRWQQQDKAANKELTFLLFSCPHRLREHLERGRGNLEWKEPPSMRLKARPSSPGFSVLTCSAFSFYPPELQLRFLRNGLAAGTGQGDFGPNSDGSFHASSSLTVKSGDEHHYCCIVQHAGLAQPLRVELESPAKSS
T7 sequence (P61769 21-119 limits assumed, form in doubt, chain 2 of 2): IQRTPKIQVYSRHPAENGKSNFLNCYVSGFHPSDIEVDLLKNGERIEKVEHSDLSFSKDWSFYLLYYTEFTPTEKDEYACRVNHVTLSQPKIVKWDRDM
How it was run: as §1

[8] = target: T8, human FcγRIIC expressed on CHO cells (human, UniProt P31995 43-323); assay: FACS, CHO cells expressing FcγRIIC
T8 construct: whole, on cells
T8 sequence (looked up): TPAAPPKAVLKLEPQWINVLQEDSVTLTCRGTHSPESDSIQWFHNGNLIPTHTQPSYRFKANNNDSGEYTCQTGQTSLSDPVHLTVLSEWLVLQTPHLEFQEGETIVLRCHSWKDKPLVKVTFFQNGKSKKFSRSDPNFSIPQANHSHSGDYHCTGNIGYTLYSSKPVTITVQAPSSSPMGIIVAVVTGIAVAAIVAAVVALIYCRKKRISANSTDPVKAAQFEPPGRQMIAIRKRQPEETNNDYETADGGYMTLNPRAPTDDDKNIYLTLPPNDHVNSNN
Protocol: (§2) For FACS analysis of the IgG mutants' binding to different FcγRs, FcγR overexpressing CHO cells were harvested using trypsin-EDTA and were suspended in cold staining buffer (3% BSA in PBS). Test IgG mutants, which were diluted in staining buffer, were added into the cells. The mixture was incubated 4° C. for 2 hours, and then washed twice with cold staining buffer and re-suspended in PE-labeled anti-human IgG followed by incubation at 4° C. for 2 hours. The mixture was washed twice with staining buffer and re-suspended in 2% PFA in PBS for FACS.

[9] = target: T9, human FcγRIIA(H131) expressed on CHO cells (human, UniProt P12318 34-317); assay: FACS, CHO cells expressing FcγRIIA(H131)
T9 construct: whole, on cells
T9 sequence (looked up): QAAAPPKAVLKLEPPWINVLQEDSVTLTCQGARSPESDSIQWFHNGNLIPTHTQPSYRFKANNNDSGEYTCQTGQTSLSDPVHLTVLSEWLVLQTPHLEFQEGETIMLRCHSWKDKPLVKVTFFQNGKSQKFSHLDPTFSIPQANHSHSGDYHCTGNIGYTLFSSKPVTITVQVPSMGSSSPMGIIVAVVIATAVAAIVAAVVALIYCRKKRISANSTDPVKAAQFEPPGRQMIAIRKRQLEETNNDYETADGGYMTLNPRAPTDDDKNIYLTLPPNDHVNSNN
Protocol: (§3) FIGS. 1A-1W are charts showing binding activity of various IgG variants as indicated to different types of Fcγ receptors expressed on CHO-K1 cells at the various concentrations as indicated. The concentrations of each IgG variant, from left to right, are 0 μg/ml, 0.3 μg/ml, 1 μg/ml, 3 μg/ml, and 10 μg/ml in FIGS. 1A-1C, 1E-J, 1L-1M, 1P-1R, and 1T-1V. For FIGS. 1D, 1K, 10, 1S, and 1w the bars, from left to right, correspond to the following concentrations of IgG variant: 0.3 μg/ml, 1 μg/ml, 3 μg/ml, and 10 μg/ml.
as §2

[10] = target: T10, human FcγRIIA(R131) expressed on CHO cells (human, UniProt P12318 34-317); assay: FACS, CHO cells expressing FcγRIIA(R131)
T10 construct: whole, on cells
T10 sequence (looked up): T9 sequence (looked up) with H134R
Protocol: as §2

[11] = target: T1, human FcRI protein (MednaBio, E1031); assay: BLI; remark: listed apart in the source
How it was run: as §1

[12] = target: T2, human FcRIIA protein (MednaBio, E1033); assay: BLI; remark: listed apart in the source
How it was run: as §1

[13] = target: T3, human FcRIIB/C protein (MednaBio, E1034); assay: BLI; remark: listed apart in the source
How it was run: as §1

[14] = target: T4, human FcRIIIA-F158 protein (MednaBio, …); assay: BLI; remark: listed apart in the source
How it was run: as §1

[15] = target: T5, human FcRIIIA-V158 protein (MednaBio, …); assay: BLI; remark: listed apart in the source
How it was run: as §1

[16] = target: T6, human FcRIIIB protein (MednaBio, E1037); assay: BLI; remark: listed apart in the source
How it was run: as §1

[17] = target: T7, human FcRn protein (MednaBio, E1032); assay: BLI; remark: listed apart in the source
How it was run: as §1

[18] = target: T10, human FcγRIIA(R131) expressed on CHO …; assay: FACS, CHO cells expressing FcγRIIA(R131); remark: listed apart in the source
Protocol: as §3, §2

T1 sequence (P12314 16-288 limits assumed): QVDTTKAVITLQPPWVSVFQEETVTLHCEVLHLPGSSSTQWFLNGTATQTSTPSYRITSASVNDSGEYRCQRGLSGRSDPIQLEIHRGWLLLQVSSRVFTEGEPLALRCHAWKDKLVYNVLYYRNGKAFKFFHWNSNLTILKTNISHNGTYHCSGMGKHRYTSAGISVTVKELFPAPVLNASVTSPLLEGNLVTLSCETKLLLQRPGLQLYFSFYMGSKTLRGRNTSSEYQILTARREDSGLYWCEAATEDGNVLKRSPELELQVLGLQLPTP

B1: anti-CD137 IgG1 with Fc variant G1m25 (antibody)
heavy: EVQLVQSGAEVKKPGESLRISCKGSGYSFSTYWISWVRQMPGKGLEWMGKIYPGDSYTNYSPSFQGQVTISADKSISTAYLQWSSLKASDTAMYYCARGYGIFDYWGQGTLVTVSSASTKGPSVFPLAPSSKSTSGGTAALGCLVKDYFPEPVTVSWNSGALTSGVHTFPAVLQSSGLYSLSSVVTVPSSSLGTQTYICNVNHKPSNTKVDKKVEPKSCDKTHTCPPCPAPELLGPSVFLFPPKPKDTLMISRTPEVTCVVVDVSHEDPEEKFNWYVDGVEVHNAKTKPREEQYNSTYRVVSVLTVLHQDWLNGKEYKCKVSNKALPAPIEKTISKAKGQPREPQVYTLPPSREEMTKNQVSLTCLVKGFYPSDIAVEWESNGQPENNYKTTPPVLDSDGSFFLYSKLTVDKSRWQQGNVFSCSVMHEALHNHYTQKSLSLSPGK
light: SYELTQPPSVSVSPGQTASITCSGDNIGDQYAHWYQQKPGQSPVLVIYQDKNRPSGIPERFSGSNSGNTATLTISGTQAMDEADYYCATYTGFGSLAVFGGGTKLTVLGQPKAAPSVTLFPPSSEELQANKATLVCLISDFYPGAVTVAWKADSSPVKAGVETTTPSKQSNNKYAASSYLSLTPEQWKSHRSYSCQVTHEGSTVEKTVAPTECS
notes: copies: 2 + 2
[1]
  binding result: no binding (tested: 300 nM)
[2]
  binding result: no binding (tested: 300 nM)
[3]
  binding result: no binding (tested: 300 nM)
[4]
  binding result: no binding (tested: 300 nM)
[5]
  binding result: no binding (tested: 300 nM)
[6]
  binding result: no binding (tested: 300 nM)
[7]
  Kd: 15 nM
  koff: 0.0093 s⁻¹
  kon: 620000 M⁻¹ s⁻¹
[8]
  binding result: no binding (tested: 10 ug/ml)
[9]
  binding result: no binding (tested: 10 ug/ml)
[10]
  binding result: no binding (tested: 10 ug/ml)

B2: anti-CD137 IgG1 with Fc variant G1m27 (antibody)
heavy: B1 heavy with S265E, E271V
light: B1 light
notes: copies: 2 + 2
[1]
  binding result: no binding (tested: 300 nM)
[2]
  binding result: no binding (tested: 300 nM)
[3]
  Kd: 410 nM
  koff: 0.1 s⁻¹
  kon: 260000 M⁻¹ s⁻¹
[4]
  binding result: no binding (tested: 300 nM)
[5]
  binding result: no binding (tested: 300 nM)
[6]
  binding result: no binding (tested: 300 nM)
[7]
  Kd: 16 nM
  koff: 0.01 s⁻¹
  kon: 650000 M⁻¹ s⁻¹
[9]
  binding result: no binding (tested: 10 ug/ml)

B3: anti-CD137 IgG1 with Fc variant G1m28 (antibody)
heavy: B1 heavy with E271V, L326F
light: B1 light
notes: copies: 2 + 2
[1]
  Kd: 240 nM
  koff: 0.16 s⁻¹
  kon: 640000 M⁻¹ s⁻¹
[2]
  binding result: no binding (tested: 300 nM)
[3]
  Kd: 410 nM
  koff: 0.2 s⁻¹
  kon: 480000 M⁻¹ s⁻¹
[4]
  binding result: no binding (tested: 300 nM)
[5]
  binding result: no binding (tested: 300 nM)
[6]
  binding result: no binding (tested: 300 nM)
[7]
  Kd: 17 nM
  koff: 0.011 s⁻¹
  kon: 650000 M⁻¹ s⁻¹
[9]
  binding result: no binding (tested: 10 ug/ml)
[10]
  binding result: no binding (tested: 10 ug/ml)

B4: anti-CD137 IgG4 with Fc variant G4m30 (antibody)
heavy: EVQLVQSGAEVKKPGESLRISCKGSGYSFSTYWISWVRQMPGKGLEWMGKIYPGDSYTNYSPSFQGQVTISADKSISTAYLQWSSLKASDTAMYYCARGYGIFDYWGQGTLVTVSSASTKGPSVFPLAPCSRSTSESTAALGCLVKDYFPEPVTVSWNSGALTSGVHTFPAVLQSSGLYSLSSVVTVPSSSLGTKTYTCNVDHKPSNTKVDKRVESKYGPPCPPCPAPEFLPSVFLFPPKPKDTLMISRTPEVTCVVVDVSQEDPEVQFNWYVDGVEVHNAKTKPREEQFNSTYRVVSVLTVLHQDWLNGKEYKCKVSNKGLPSSIEKTISKAKGQPREPQVYTLPPSQEEMTKNQVSLTCLVKGFYPSDIAVEWESNGQPENNYKTTPPVLDSDGSFFLYSRLTVDKSRWQEGNVFSCSVMHEALHNHYTQKSLSLSLGK
light: B1 light
notes: also called G430; copies: 2 + 2
[11]
  Kd: 528 nM
  koff: 0.193 s⁻¹
  kon: 365000 M⁻¹ s⁻¹
[12]
  Kd: 977 nM
  koff: 0.234 s⁻¹
  kon: 240000 M⁻¹ s⁻¹
[13]
  Kd: 2220 nM
  koff: 0.118 s⁻¹
  kon: 53600 M⁻¹ s⁻¹
[14]
  Kd: 284 nM
  koff: 0.303 s⁻¹
  kon: 1.06e+06 M⁻¹ s⁻¹
[15]
  Kd: 217 nM
  koff: 0.309 s⁻¹
  kon: 1.42e+06 M⁻¹ s⁻¹
[16]
  Kd: 216 nM
  koff: 0.297 s⁻¹
  kon: 1.37e+06 M⁻¹ s⁻¹
[17]
  Kd: 7.61 nM
  koff: 0.0133 s⁻¹
  kon: 1.75e+06 M⁻¹ s⁻¹
[18]
  binding result: no binding (tested: 10 ug/ml)
